# Results reported in patent publication US20130236459A1 (MERRIMACK PHARMACEUTICALS, published 2013).
# Read-outs that look alike come from different tables or passages of the source.
# Assays:
# [1] = biological target: T1, IGF-1R (receptor for insulin-like growth factor 1), endogenous on human tumor cell lines (human, UniProt P08069 31-1367); experiment: cell-based or functional assay
# [2] = biological target: T2, ErbB3 (HER3), endogenous on human tumor cell lines (human, UniProt P21860 20-1342); experiment: cell-based or functional assay
# [3] = biological target: T1, IGF-1R (receptor for insulin-like …); experiment: cell-based or functional assay; remark: listed apart in the source
# [4] = biological target: T1, IGF-1R (receptor for insulin-like …); experiment: cell-based or functional assay; remark: listed apart in the source
# [5] = biological target: T2, ErbB3 (HER3), endogenous on human tumor …; experiment: cell-based or functional assay; remark: listed apart in the source
# [6] = biological target: T1, IGF-1R (receptor for insulin-like …); experiment: cell-based or functional assay; remark: listed apart in the source
# [7] = biological target: T2, ErbB3 (HER3), endogenous on human tumor …; experiment: cell-based or functional assay; remark: listed apart in the source
# [8] = biological target: T1, IGF-1R (receptor for insulin-like …); experiment: cell-based or functional assay; remark: listed apart in the source
# mouse ErbB3-His = biological target: T3, mouse ErbB3-His (mouse, UniProt Q61526 20-641, limits assumed); experiment: ELISA, species specific ErbB3-His coated plate
# T3 construct: not shown: His tag, not further described for this species form
# Procedure: (§1) 96-well Reacti-bind® plates (Pierce, Fisher cat. No. PI-I5041) are coated with 50 ul of species specific ErbB3-His or IGF-1R-His (R&D Systems, cat. No. 348-RB and 305-GR, respectively) at 2 ug/ml in PBS and incubated overnight at 4° C. The next day plates are washed with PBS+0.05% Tween-20 (PBS-T) and blocked for 1 hr. at room temperature with 100 ul of Protein-Free Blocking Buffer (Pierce). Plates are washed with PBS-T and 50 ul of each PBA is added in duplicate. Concentrations start at 500 nM (in PBS-T) and included ten additional two-fold dilutions and one blank (PBS-T only). Plates are incubated at room temperature for two hours and then washed with PBS-T. 50 ul of anti-Fc-HRP (Jackson Labs) is added at 1:40,000 in PBS-T, and plates are incubated in the dark for 1 hr. at room temperature. Plates are again washed with PBS-T and 100 ul of TMB substrate (Thermo Scientific, TMB and peroxide solution mixed 1:1) is added. The plates are incubated for 5-15 minutes at room temperature until a blue color develops, and the reaction is stopped with 100 ul of STOP solution (Cell Signaling Technology). The absorbance is read at 450 nm on a PerkinElmer Envision plate reader, and binding curves are generated using GraphPad Prism.
# rat ErbB3-His = biological target: T4, rat ErbB3-His (rat, UniProt Q62799 20-641, limits assumed); experiment: ELISA, species specific ErbB3-His coated plate
# T4 construct: not shown: His tag, not further described for this species form
# Procedure: as §1
# mouse IGF-1R-His = biological target: T5, mouse IGF-1R-His (mouse, UniProt Q60751 31-936, limits assumed); experiment: ELISA, species specific IGF-1R-His coated plate
# T5 construct: not shown: His tag, not further described
# Procedure: as §1
# [9] = biological target: T2, ErbB3 (HER3), endogenous on human tumor …; experiment: cell-based or functional assay; remark: listed apart in the source
# [10] = biological target: T2, ErbB3 (HER3), endogenous on human tumor …; experiment: cell-based or functional assay; remark: listed apart in the source
# [11] = biological target: T2, ErbB3 (HER3), endogenous on human tumor …; experiment: cell-based or functional assay; remark: listed apart in the source
# [12] = biological target: T1, IGF-1R (receptor for insulin-like …); experiment: cell-based or functional assay; remark: listed apart in the source
# [13] = biological target: T1, IGF-1R (receptor for insulin-like …); experiment: cell-based or functional assay; remark: listed apart in the source
# T2 sequence (P21860 20-1342 limits assumed): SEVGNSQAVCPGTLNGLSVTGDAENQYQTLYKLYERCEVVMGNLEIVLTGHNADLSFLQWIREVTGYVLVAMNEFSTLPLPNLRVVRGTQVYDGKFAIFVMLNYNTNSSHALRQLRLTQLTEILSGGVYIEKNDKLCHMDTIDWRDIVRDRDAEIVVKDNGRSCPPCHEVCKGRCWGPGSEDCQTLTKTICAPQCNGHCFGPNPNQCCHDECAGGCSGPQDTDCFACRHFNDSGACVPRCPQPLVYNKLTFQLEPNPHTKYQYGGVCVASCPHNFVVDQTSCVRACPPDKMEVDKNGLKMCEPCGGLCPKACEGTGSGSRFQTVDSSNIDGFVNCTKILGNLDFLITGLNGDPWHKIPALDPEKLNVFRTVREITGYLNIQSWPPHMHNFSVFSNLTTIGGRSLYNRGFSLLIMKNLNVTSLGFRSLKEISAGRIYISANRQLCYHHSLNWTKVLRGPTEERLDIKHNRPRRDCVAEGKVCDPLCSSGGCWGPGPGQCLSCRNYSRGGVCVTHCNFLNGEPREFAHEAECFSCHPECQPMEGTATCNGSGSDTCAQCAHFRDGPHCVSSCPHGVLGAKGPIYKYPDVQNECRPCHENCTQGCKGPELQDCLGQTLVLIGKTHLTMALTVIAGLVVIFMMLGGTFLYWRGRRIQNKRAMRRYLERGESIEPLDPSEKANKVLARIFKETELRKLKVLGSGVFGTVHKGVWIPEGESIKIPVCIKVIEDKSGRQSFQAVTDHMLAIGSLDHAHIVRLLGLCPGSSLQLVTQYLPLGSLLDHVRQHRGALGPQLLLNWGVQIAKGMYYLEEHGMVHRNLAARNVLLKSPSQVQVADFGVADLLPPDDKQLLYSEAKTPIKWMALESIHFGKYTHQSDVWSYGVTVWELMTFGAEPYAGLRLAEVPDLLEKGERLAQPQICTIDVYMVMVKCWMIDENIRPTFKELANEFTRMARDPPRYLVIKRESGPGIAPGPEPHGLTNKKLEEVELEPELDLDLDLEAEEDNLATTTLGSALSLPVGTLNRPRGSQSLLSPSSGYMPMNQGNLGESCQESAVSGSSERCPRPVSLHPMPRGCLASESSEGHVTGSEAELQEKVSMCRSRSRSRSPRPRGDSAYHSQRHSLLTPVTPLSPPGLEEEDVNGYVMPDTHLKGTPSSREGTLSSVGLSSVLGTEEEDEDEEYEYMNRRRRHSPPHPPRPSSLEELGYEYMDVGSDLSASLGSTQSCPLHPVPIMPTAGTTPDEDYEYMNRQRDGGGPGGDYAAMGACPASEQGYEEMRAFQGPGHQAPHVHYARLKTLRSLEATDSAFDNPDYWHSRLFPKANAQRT
# T1 sequence (P08069 31-1367): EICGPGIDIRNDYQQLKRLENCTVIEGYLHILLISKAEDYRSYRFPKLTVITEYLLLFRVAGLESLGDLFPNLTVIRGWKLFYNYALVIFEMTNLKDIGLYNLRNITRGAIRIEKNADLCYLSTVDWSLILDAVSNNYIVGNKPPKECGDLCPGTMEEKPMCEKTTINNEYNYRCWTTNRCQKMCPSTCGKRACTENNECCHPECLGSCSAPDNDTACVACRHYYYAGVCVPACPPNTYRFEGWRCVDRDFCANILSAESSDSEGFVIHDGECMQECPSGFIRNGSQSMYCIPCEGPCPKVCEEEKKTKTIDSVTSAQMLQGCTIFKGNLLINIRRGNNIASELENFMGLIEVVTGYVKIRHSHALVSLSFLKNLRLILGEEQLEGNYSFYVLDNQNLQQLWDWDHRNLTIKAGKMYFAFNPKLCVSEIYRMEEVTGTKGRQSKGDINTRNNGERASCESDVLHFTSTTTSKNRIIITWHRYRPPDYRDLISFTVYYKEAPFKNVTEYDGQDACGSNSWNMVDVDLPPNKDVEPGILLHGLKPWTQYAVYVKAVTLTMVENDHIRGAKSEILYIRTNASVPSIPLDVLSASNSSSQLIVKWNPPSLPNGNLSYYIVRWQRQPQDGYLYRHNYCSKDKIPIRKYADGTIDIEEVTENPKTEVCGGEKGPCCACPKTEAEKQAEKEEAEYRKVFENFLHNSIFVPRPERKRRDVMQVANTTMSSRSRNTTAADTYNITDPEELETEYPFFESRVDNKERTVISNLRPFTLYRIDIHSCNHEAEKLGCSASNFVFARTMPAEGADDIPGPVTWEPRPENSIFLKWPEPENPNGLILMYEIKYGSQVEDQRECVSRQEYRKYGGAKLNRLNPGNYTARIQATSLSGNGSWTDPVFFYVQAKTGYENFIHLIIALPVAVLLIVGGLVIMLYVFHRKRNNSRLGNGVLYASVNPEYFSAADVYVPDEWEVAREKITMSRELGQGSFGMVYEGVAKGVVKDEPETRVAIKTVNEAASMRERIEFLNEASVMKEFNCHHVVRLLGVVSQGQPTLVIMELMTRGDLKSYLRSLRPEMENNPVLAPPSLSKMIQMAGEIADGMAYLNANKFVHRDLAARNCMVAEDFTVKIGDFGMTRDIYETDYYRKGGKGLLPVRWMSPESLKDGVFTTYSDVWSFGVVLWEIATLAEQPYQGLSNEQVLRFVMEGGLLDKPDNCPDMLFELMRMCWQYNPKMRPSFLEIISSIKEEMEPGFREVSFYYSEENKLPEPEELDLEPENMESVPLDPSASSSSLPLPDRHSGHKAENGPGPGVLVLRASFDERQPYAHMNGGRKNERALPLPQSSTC
# T5 sequence (Q60751 31-936 limits assumed): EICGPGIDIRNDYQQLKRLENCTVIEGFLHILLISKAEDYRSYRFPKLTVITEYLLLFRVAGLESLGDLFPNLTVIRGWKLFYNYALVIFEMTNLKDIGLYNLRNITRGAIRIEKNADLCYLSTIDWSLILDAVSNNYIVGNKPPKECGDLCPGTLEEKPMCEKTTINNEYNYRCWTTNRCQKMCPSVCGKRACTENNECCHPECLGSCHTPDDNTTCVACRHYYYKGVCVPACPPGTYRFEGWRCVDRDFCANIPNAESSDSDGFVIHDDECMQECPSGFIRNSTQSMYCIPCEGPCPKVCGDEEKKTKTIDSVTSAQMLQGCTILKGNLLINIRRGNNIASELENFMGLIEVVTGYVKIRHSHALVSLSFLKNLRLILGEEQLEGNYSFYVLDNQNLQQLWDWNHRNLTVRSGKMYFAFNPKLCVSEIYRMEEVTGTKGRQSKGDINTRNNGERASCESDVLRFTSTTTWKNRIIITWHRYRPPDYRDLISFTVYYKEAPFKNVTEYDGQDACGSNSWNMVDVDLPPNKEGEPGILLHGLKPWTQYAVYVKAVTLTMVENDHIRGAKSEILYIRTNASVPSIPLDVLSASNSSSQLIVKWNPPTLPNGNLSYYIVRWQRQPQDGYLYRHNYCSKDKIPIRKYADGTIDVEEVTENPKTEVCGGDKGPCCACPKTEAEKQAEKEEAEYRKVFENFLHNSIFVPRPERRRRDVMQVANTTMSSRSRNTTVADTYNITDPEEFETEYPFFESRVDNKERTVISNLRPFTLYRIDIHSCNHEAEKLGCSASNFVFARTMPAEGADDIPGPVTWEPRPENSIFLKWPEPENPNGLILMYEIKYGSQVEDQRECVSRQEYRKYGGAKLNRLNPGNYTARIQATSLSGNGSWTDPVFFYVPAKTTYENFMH
# T3 sequence (Q61526 20-641 limits assumed): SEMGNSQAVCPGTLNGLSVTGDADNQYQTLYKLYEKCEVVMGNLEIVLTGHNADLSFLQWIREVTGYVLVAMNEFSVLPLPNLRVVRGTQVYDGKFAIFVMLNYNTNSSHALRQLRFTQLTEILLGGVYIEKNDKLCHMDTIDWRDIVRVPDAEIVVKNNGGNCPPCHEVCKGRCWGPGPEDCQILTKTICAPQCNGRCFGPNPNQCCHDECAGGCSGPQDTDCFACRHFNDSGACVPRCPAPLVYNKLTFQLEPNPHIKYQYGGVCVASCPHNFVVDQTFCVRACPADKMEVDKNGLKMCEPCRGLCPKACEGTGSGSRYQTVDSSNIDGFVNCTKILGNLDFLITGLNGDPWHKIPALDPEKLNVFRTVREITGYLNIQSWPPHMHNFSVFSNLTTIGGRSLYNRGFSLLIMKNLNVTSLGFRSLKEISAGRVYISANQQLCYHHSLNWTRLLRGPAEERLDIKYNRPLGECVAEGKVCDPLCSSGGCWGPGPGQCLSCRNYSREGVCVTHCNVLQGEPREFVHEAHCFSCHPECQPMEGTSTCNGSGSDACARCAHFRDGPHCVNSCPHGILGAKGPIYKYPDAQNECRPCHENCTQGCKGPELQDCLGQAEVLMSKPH
# T4 sequence (Q62799 20-641 limits assumed): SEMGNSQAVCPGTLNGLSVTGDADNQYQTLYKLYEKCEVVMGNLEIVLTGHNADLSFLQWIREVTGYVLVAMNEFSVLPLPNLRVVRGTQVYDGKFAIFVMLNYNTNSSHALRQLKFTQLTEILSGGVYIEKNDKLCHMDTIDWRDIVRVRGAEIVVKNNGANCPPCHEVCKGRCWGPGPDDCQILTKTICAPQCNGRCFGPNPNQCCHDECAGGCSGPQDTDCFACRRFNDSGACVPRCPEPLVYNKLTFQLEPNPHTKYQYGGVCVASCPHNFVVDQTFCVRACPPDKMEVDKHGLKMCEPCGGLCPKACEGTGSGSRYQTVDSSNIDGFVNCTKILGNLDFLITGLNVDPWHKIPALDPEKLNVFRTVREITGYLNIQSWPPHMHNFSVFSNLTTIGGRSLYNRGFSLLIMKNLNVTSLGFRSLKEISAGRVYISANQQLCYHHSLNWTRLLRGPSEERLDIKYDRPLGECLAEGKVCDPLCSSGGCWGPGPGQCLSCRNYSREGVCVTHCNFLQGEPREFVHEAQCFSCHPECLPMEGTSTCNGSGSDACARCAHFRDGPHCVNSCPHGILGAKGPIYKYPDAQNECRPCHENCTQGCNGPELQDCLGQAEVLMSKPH
Binder,"pAKT IC50 (BxPC-3, IGF1 40 ng/ml) [1] [M]","pAKT IC50 (BxPC-3, IGF1 400 ng/ml) [1] [M]","pIGF1R IC50 (BxPC-3, IGF1 40 ng/ml) [1] [M]","pIGF1R IC50 (BxPC-3, IGF1 400 ng/ml) [1] [M]","pAKT IC50 (BxPC-3, HRG 20 ng/ml) [2] [M]","pAKT IC50 (BxPC-3, HRG 200 ng/ml) [2] [M]","pErbB3 IC50 (BxPC-3, HRG 20 ng/ml) [2] [M]","pErbB3 IC50 (BxPC-3, HRG 200 ng/ml) [2] [M]","% IGF1R Downregulation (A549, 24 h) [3] [%]","% IGF1R Downregulation (BxPC-3, 24 h) [3] [%]",pIGF1R % Inhibition (BxPC-3) [4] [%],pIGF1R IC50 (BxPC-3) [4],pErbB3 % Inhibition (BxPC-3) [5] [%],pErbB3 IC50 (BxPC-3) [5],pIGF1R IC50 (BxPC-3) [6],pErbB3 IC50 (BxPC-3) [7],further results
"P4-G1-M1.3 (bispecific antibody, human IgG1, kappa) heavy: not shown light: DIQMTQSPSSLSASLGDRVTITCRASQGISSYLAWYQQKPGKAPKLLIYAKSTLQSGVPSRFSGSGSGTDFTLTISSLQPEDSATYYCQQYWTFPLTFGGGTKVEIKRTVAAPSVFIFPPSDEQLKSGTASVVCLLNNFYPREAKVQWKVDNALQSGNSQESVTEQDSKDSTYSLSSTLTLSKADYEKHKVYACEVTHQGLSSPVTKSFNRGEC",1.4e-10,2.1e-10,1.2e-10,9.9e-11,3.97e-11,4.09e-11,3.12e-11,2.72e-11,72,71,92,1.8e-10 M (inferred),94,5.5e-11 M (inferred),1.1e-09 M (inferred),5.3e-11 M (inferred),–
"Anti-IGF-1R Ab# B (cixutumumab) (antibody, V domains shown) VH: EVQLVQSGAEVKKPGSSVKVSCKASGGTFSSYAISWVRQAPGQGLEWMGGIIPIFGTANYAQKFQGRVTITADKSTSTAYMELSSLRSEDTAVYYCARAPLRFLEWSTQDHYYYYYMDVWGKGTTVTVSS VL: SSELTQDPAVSVALGQTVRITCQGDSLRSYYATWYQQKPGQAPILVIYGENKRPSGIPDRFSGSSSGNTASLTITGAQAEDEADYYCKSRDGSGQHLVFGGGTKLTVLG",–,–,–,–,–,–,–,–,–,–,–,–,–,–,–,–,pAKT IC50 (BxPC-3) [8]: 1.4e-08 M (inferred); pAKT IC50 (DU145) [8]: 9.8e-09 M (inferred); pIGF-1R IC50 (BxPC-3) [8]: 2.4e-09 M (inferred); pIGF-1R IC50 (DU145) [8]: 9.1e-10 M (inferred)
"M7-G1-M78 (bispecific antibody, human IgG1, lambda, IgG1-(scFv)2: anti-ErbB3 Fab, anti-IGF-1R scFv; also called M7-M78; M7-78) heavy: not shown light: SSELTQDPAVSVALGQTVRITCQGDSLRSYYASWYQQKPGQAPVLVIYGKNNRPSGIPDRFSGSSSGNTASLTITGAQAEDEADYYCNSRDTPGNKWVFGGGTKVTVIGQPKAAPSVTLFPPSSEELQANKATLVCLVSDFYPGAVTVAWKADGSPVKVGVETTKPSKQSNNKYAASSYLSLTPEQWKSHRSYSCRVTHEGSTVEKTVAPAECS",3.8e-10,6.4e-10,1e-09,2.4e-09,7.12e-11,6.46e-11,6.16e-11,6.53e-11,48,53,88,1.3e-09 M (inferred),111,2.6e-11 M (inferred),1.3e-09 M (inferred),2.6e-11 M (inferred),binding result (mouse ErbB3-His): binds; binding result (rat ErbB3-His): binds; binding result (mouse IGF-1R-His): binds
"B60-G1-P4 (bispecific antibody, human IgG1, lambda) heavy: not shown light: SSELTQDPAVSVALGQTVRITCQGDSLRSYYASWYQQKPGQAPVLVIYGKNNRPSGIPDRFSGSSSGNTASLTITGAQAEDEADYYCNSRDWPGNQWVFGGGTKVTVLGQPKAAPSVTLFPPSSEELQANKATLVCLVSDFYPGAVTVAWKADGSPVKVGVETTKPSKQSNNKYAASSYLSLTPEQWKSHRSYSCRVTHEGSTVEKTVAPAECS",–,–,–,–,–,–,–,–,–,–,88,4.4e-09 M (inferred),99,4e-11 M (inferred),2.2e-08 M (inferred),~2.4e-14 M (inferred),–
"B60-G1-M57 (bispecific antibody, human IgG1, lambda) heavy: not shown light: SSELTQDPAVSVALGQTVRITCQGDSLRSYYASWYQQKPGQAPVLVIYGKNNRPSGIPDRFSGSSSGNTASLTITGAQAEDEADYYCNSRDWPGNQWVFGGGTKVTVLGQPKAAPSVTLFPPSSEELQANKATLVCLVSDFYPGAVTVAWKADGSPVKVGVETTKPSKQSNNKYAASSYLSLTPEQWKSHRSYSCRVTHEGSTVEKTVAPAECS",–,–,–,–,–,–,–,–,–,–,85,1e-08 M (inferred),162,1.2e-09 M (inferred),4.4e-09 M (inferred),2.3e-11 M (inferred),–
"ANTI-ErbB3 Ab# A (antibody, V domains shown) VH: QVQLQQWGAGLLKPSETLSLTCAVYGGSFSGYYWSWIRQPPGKGLEWIGEINHSGSTNYNPSLKSRVTISVETSKNQFSLKLSSVTAADTAVYYCARDKWTWYFDLWGRGTLVTVSS VL: not shown",–,–,–,–,3.06e-10,3.26e-10,2.41e-10,1.98e-10,–,–,–,–,–,–,–,9.2e-11 M (inferred),pAKT IC50 (BxPC-3 50% ErbB3 KD) [9]: 2.8e-10 M; pAKT IC50 (BxPC-3 50% IGF1R KD) [9]: 1.6e-09 M; pAKT IC50 (BxPC-3 Vector Control) [9]: 2.5e-09 M; pAKT IC50 (BxPC-3) [7]: 3.5e-10 M (inferred); pAKT IC50 (BxPC-3) [10]: 5.7e-09 M (inferred); pErbB3 IC50 (BxPC-3) [10]: 4.3e-10 M (inferred); pAKT IC50 (BxPC-3) [11]: 3.9e-10 M (inferred); pAKT IC50 (DU145) [11]: 2.8e-10 M (inferred); pErbB3 IC50 (BxPC-3) [11]: 5.1e-11 M (inferred); pErbB3 IC50 (DU145) [11]: 8.2e-11 M (inferred)
"ANTI-IGF-1R Ab# A (ganitumab) (antibody, V domains shown) VH: QVQLQESGPGLVKPSGTLSLTCAVSGGSISSSNWWSWVRQPPGKGLEWIGEIYHSGSTNYNPSLKSRVTISVDKSKNQFSLKLSSVTAADTAVYYCARWTGRTDAFDIWGQGTMVTVSS VL: not shown",7.4e-09,9.1e-09,7.8e-10,2.5e-10,–,–,–,–,57,51,–,–,–,–,1.6e-09 M (inferred),–,pAKT IC50 (BxPC-3 50% ErbB3 KD) [12]: 1.3e-07 M; pAKT IC50 (BxPC-3 50% IGF1R KD) [12]: 4e-08 M; pAKT IC50 (BxPC-3 Vector Control) [12]: 2.1e-08 M; pAKT IC50 (BxPC-3) [6]: 8e-11 M (inferred); pAKT IC50 (BxPC-3) [13]: 2.6e-10 M (inferred); pIGF-1R IC50 (BxPC-3) [13]: 1.5e-10 M (inferred)
